Source: PMC9424855, “Obligately aerobic human gut microbe expresses an oxygen resistant tungsten-containing oxidoreductase for detoxifying gut aldehydes” (Frontiers in Microbiology, 2022)

Key:
[1] = tested on: CC(C)CC=O; assay: purified protein; details: apparent Km, benzyl viologen 1 mM as electron acceptor, 50 mM HEPES pH 7.5, 35 °C, anaerobic
[2] = tested on: O=C/C=C/c1ccccc1; assay: purified protein; details: apparent Km, benzyl viologen 1 mM as electron acceptor, 50 mM HEPES pH 7.5, 35 °C, anaerobic
[3] = tested on: O=Cc1ccccc1; assay: purified protein; details: apparent Km, benzyl viologen 1 mM as electron acceptor, 50 mM HEPES pH 7.5, 35 °C, anaerobic
[4] = tested on: O=Cc1ccco1; assay: purified protein; details: apparent Km, benzyl viologen 1 mM as electron acceptor, 50 mM HEPES pH 7.5, 35 °C, anaerobic
[5] = target: Brevibacillus massiliensis tungsten-containing oxidoreductase (BmWOR) (Brevibacillus massiliensis)
[6] = target: BmWOR (Brevibacillus massiliensis, UniProt Z9C1J5R5O5); assay: benzyl viologen reduction followed at […] nm; details: apparent Km; benzyl viologen 1 mM as electron acceptor, 50 mM HEPES pH 7.5, 35 °C, anaerobic
BmWOR, sequence (Z9C1J5R5O5 1-602): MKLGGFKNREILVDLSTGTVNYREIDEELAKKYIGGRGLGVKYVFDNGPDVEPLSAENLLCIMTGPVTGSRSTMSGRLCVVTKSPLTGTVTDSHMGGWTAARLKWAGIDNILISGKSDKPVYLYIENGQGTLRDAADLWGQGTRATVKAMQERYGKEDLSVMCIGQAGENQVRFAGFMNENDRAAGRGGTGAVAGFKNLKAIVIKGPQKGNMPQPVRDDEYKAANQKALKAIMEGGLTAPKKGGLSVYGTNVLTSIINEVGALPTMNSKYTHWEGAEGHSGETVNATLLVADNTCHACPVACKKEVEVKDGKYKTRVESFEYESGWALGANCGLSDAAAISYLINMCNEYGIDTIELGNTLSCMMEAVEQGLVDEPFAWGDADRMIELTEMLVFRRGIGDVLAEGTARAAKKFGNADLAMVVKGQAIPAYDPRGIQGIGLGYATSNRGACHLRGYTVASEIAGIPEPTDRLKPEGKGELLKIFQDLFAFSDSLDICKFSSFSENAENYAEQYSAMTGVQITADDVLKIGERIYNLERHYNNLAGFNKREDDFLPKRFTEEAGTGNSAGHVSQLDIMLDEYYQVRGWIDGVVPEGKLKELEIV

Q: Which Km [1] does the source give for BmWOR (Brevibacillus massiliensis) here?
A: The Km was 3.6 ± 0.9 µM.

Q: What about the Km [2] of the same substance?
A: The Km was 5.6 ± 1.2 µM.

Q: And the Km [3]?
A: Its Km is 4.2 ± 1.0 µM.

Q: What about the Km [4] of the same substance?
A: Its Km is 2.1 ± 2.0 µM.

Q: How did the apparent Km for Fd as electron acceptor of BmWOR in the benzaldehyde oxidation assay (enzyme activity, Fd reduction followed at 425 nm) [5] turn out when “Brevibacillus massiliensis ferredoxin (BmFd) (natural protein)” was run?
A: The apparent Km for Fd as electron acceptor of BmWOR in the benzaldehyde oxidation assay (enzyme activity, Fd reduction followed at 425 nm) was less than 5 µM.

Q: Which Km [6] does the source give for Tolualdehyde here?
A: Its Km is 6.1 ± 2.1 µM.
